From patent US20150232562A1 (Ablynx, published 2015)
Residue numbers refer to the chain shown, from its start.

B1: 13G72/1-118 (VHH)
VHH: EVQLVESGGGLVQAGGSLRLSCAASGRAFSSYAMGWFRQAPGKERDFVAAITSSGSTNYADSVKGRFTISRDNAKNTVYLQMNSLKPEDTAVYYCAAKYYSYYAYDYWGQGTQVTVSS
notes: C-term myc-His6 tag
B2: 21A81/1-122 (VHH)
VHH: EVQLVESGGGLAQAGGSLRLSCAVFGRSRYGMAWFRRAPGKEREFVAGIAWNGASIGSADSVRGRFTISRDNSENTVYFEMGSLKPEDTAVYYCAICRISWCAGAESDYGYWGQGTQVTVSS
notes: C-term myc-His6 tag
B3: 22C712/1-123 (VHH)
VHH: EVQLVESGGGLVQAGGSLGLSCAASGRTFSNYAMGWFRQAPGKEREFVAGISWSGGHTFYADSVKGRFTISRDNTKNTVYLQMNSMRPEDTAVYYCAARLSSVAVASTRYDYWGQGTQVTVSS
notes: C-term myc-His6 tag
B4: 11A31/1-120 (VHH)
VHH: EVQLVESGGGLVQAGGSLRLSCAASGGTFSSGVMAWFRQSPGEEREFLALITRNGETKKTADSVKGRFTISRDNAKNGVSLQMDSLKAEDTAVYYCASDPTYGSGRWTYWGQGTQVTVSS
notes: C-term myc-His6 tag
B5: 13E51/1-128 (VHH)
VHH: EVQLVESGGGLVQAGGSLRLSCAASRHTFSGYAMGWFRQAPGKEREFVAAIRWSGGITYYADSVKGRFTISSDNAKNTVYLQMNSLKPEDTALYYCARSVTYYSGSHAYTQEGGYARWGQGTQVTVSS
notes: C-term myc-His6 tag
B6: 12C52/1-118 (VHH)
VHH: EVQLVESGGGLVQAGGSLRLSCAVSGGTFESDTMAWFRQAPGKEREFVARVSWIRTTYYSDSVKGRFTISKDNAKNTVYLQMNSLKPEDTAVYYCAAQTLGRSLYDYWGQGTQVTVSS
notes: C-term myc-His6 tag
B7: 14H12/1-125 (VHH)
VHH: EVQLVESGGGLVQAGGSLRLSCIASERTFSSAGVGWFRQAPGKERDFVAAISWNGVTIYYADSVKGRFTISRDNAKNTVYLQMNSLKPEDTAVYYCAARINYSVLTTTSSSYHYWGQGTQVTVSS
notes: C-term myc-His6 tag
B8: 13G101/1-123 (VHH)
VHH: EVQLVESGGGLVQPGDSLRLSCSASEGTLSRSRVAWFRQAPGKEREFVTVISGVGTSYADSVKGRFTISRDDAKNTVYLQMNSLKAEDTAIYYCAADFRSTWLSSSGSSYTYWGQGTQVTVSS
notes: C-term myc-His6 tag
B9: 22B41/1-124 (VHH)
VHH: EVQLVESGGGLVQPGGSLRLSCTVFGRTFSGDVIGWFRQAPGKEREFVAAISTSGGGTDSADSVKGRFTISKENAKNTVYLQMTILKPEDTAVYYCASSPYGPLYRSTHYYDYWGQGTQVTVSS
notes: C-term myc-His6 tag
B10: 11A121/1-126 (VHH)
VHH: EVQLVESGGGLVQAGGSLRLSCVVSEGTFSSYSMGWFRQAPGKDREFVSAITWNGTRTYYRDSVKGRFTISRDNAKNTVQLQMNSLKPEDTAVYYCAVSQPLNYYTYYDARRYDYWGQGTQVTVSS
notes: C-term myc-His6 tag
B11: 12D121/1-126 (VHH)
VHH: EVQLVESGGGLVQTGGSLRLSCAASGRAFSTYGMGWFRQAPGKAREFVAAISRSGTGTYYAGSMKGRFTISRDDAKNTVYLQMNSLKPEDTAVYYCAARQPYASGSHYSSTQYTYWGQGTQVTVSS
notes: C-term myc-His6 tag
B12: 12D71/1-125 (VHH)
VHH: EVQLVESGGGLVQAGGSLGLSCAASGRTVSTMGWFRQAPGKEREFVTAITWSGDSTNFADSVKGRFTISRDSAKDTVYLQMNNLKPEDTAVYYCAATTYYSGSYISTLSTSYNYWGQGTQVTVSS
notes: C-term myc-His6 tag
B13: 21A92/1-127 (VHH)
VHH: EVQLVESGGGQVQAGGSLRLSCTESGRAFNTRAMGWFRQAPEKEREFVAGITMSGFNTRYADSVKGRFTISRDNAKGTVYLQMSSLKPEDTAVYYCAADSITDRRSVAVAHTSYYYWGQGTQVTVSS
notes: C-term myc-His6 tag
B14: 13G93/1-123 (VHH)
VHH: EVQLVESGGGLAQAGDSLRLSCVDSGSSFSAYAMGWFRQAPGKEREFVAAVSWDGRNTYYADSVKGRFTISRDNAKNTLYLQTTSLRPEDTGVYYCAEDKQSGVSVNPKYAYWGQGTQVTVSS
notes: C-term myc-His6 tag
B15: 22B910/1-121 (VHH)
VHH: EVQLVESGGGLVQPGGSLPLSCAASGSIFRMNDMGWYRQAPGKQRERVATLTSAGNTNYADSVKGRFTISGDDARNTVYLQMNSLNPEDTAVYYCNAKVVVAVEGAKYDYWGQGTQVTVSS
notes: C-term myc-His6 tag
B16: 13E81/1-124 (VHH)
VHH: EVQLVESGGGLVQAGGSLRLSCAASGGTFSVYHMAWFRQAPGKEREFVAAIRSSGGLFYALSVSGRFTISRDNAKDTMYLQMNVLKPEDTAVYYCAASPVYYIDYSSQYKYGYWGQGTQVTVSS
notes: C-term myc-His6 tag
B17: 11A13/1-125 (VHH)
VHH: EVQLVESGGGLVQAGDSLRLSCVASGGTFGSYAMGWFRQAPGKEREFVATIDWSGDTAFYADSVKGRFTISRDIANDVVYLQMNSLEPEDTAVYYCARNRQSGVASENLRLYTYWGQGTQVTVSS
notes: C-term myc-His6 tag
B18: 11B31/1-124 (VHH)
VHH: EVQLVESGGGLVQAGGSLRLSCAASGGAFGVYHMGWFRQAPGKEREFVAAIRSGGTTLYEDSVKGRFTISRDNAKNTVYLRMNSLKPEDTAVYYCATQIYYRTNYYSQNAYDYWGQGTQVTVSS
notes: C-term myc-His6 tag
B19: 21A53/1-124 (VHH)
VHH: B18 VHH with R19E, F67V, N73D, T97A, A110V
notes: C-term myc-His6 tag
B20: 21A21/1-124 (VHH)
VHH: B18 VHH with A28T, K43T, A50V, T97A, Y106S, N109S, A110N
notes: C-term myc-His6 tag
B21: 14H51/1-124 (VHH)
VHH: B18 VHH with A28T, H33T, G35A, G55A, N73D, T97A, A110E
notes: C-term myc-His6 tag
B22: 13G81/1-124 (VHH)
VHH: B18 VHH with A28T, A50V, E60A, N73D, R81Q, Y94L, T97A, A110N
notes: C-term myc-His6 tag
B23: 21A111/1-124 (VHH)
VHH: EVQLVESGGGLVQAGGSLKLSCAVSGRTIVPYTMAWFRQAPGKEREFVAVTRSGGTTFYADSAKGRFTIARDDAKNTVYLQMNSLKPEDTAVYYCALATAYRTNYSSRDKYDYWGQGTQVTVSS
notes: C-term myc-His6 tag
B24: 13F121/1-119 (VHH)
VHH: EVQLVESGGGLVQAGGSLRLSCAASGRSFNDYTMGWFRQTPGKEREFVARVWWNGGSAYYADSVKGRFTISIDNAKNTVYLQMNNLTPEDTAVYYCAALYRGRSVYDDWGQGTQVTVSS
notes: C-term myc-His6 tag
B25: 11B42/1-123 (VHH)
VHH: EVQLVESGGGLVQAGDSLRLSCAASGFTFSNHIMGWFRQAPGKERELIAHITWNGGSTYYADSVKGRFAISRDNALNTVYLQMNSLKPEDTAVYYCAARPSYSTNNVKSYRYWGQGTQVTVSS
notes: C-term myc-His6 tag
B26: 11A91/1-124 (VHH)
VHH: EAQLVESGGGLVQAGGSLRLSCTASGRTYSTTMGWFRQAPGKEREFVAAIRWSGGSAFYADSVKGRFTISRDNAKNTVYLQMTSLMPEDTAVYYCADTPVYYQRYYDQNAYDYWGQGTQVTVSS
notes: C-term myc-His6 tag
B27: 22B1212/1-122 (VHH)
VHH: EVQLVESGGGLVQPGGSLRLSCAASGFTFSSYAMSWVRQAPGKGLEWVSAINSGGGSTSYADSVKGRFTISRDNAKNTLYLQMNSLKPEDTAVYYCAKYLSFYSDYEVYDYWGQGTQVTVSS
notes: C-term myc-His6 tag
B28: 13F41/1-111 (VHH)
VHH: EVQLVESGGGLVQAGGSLRLSCVASGRTLSTTGVGWFRQAPGKERESVATIFVGGTTYYSDSVKGRFTISRDNAKNAVNLQMSNLKPEDTALYYCTIGSYRGQGTQVTVSS
notes: C-term myc-His6 tag
B29: 13F42/1-111 (VHH)
VHH: B28 VHH with E44G, Y93H
notes: C-term myc-His6 tag
B30: 12C101/1-111 (VHH)
VHH: B28 VHH with K75R, L80P, S83N, L92V
notes: C-term myc-His6 tag
B31: 13G41/1-121 (VHH)
VHH: EVQLVESGGGLVQPGGSLTLSCVGSGRRFSADVMGWYRQAPGKQREFVASISSGSAINYADSVKGRFTVSRDNAQNTVYLQMNSLKIEDTGVYYCNARRIVNVEGAYRDYWGQGTQVTVSS
notes: C-term myc-His6 tag
B32: 12C61/1-126 (VHH)
VHH: EVQLVESGGGLVQAGGSLRLSCAASGRTFSSNAMAWFRQAPGNERELVSAIGWSGASTYYIDSVEGRFTISRDNAKNTVYLQMNSLKPEDTAVYYCAASRYSGGVATARRSEYHYWGQGTQVTVSS
notes: C-term myc-His6 tag
B33: 21A61/1-125 (VHH)
VHH: EVQLVESGGGLVQAGDSLRLSCVASGDSFNTYTMGWFRQAPGKEREFVAAIRWSGGTTFYGDSVKGRFTISRDYAKNTWYLQMNTLKPEDTAAYYCAAVATYSRNVGSVRNYDYWGQGTQVTVSS
notes: C-term myc-His6 tag
B34: 13G121/1-127 (VHH)
VHH: EVQLVESGGGLVRAGTSLRLSCADSARTFSSAAMGWFRQAPGKEREFVSAISPIGSSKYYADSVKGRFTISRDNAKNTVYLQMDSLKPEDTAVYYCAASSYGSTYYSQGRAYYYDYWGQGTQVTVSS
notes: C-term myc-His6 tag
B35: 13E111/1-124 (VHH)
VHH: EVQLVESGGGLVQAGSSLRLSCALSGRTFSDYAIGWFRQAPGKEREFVAAISGWSGGTTNYADSVKGRFTISRDNGKNTVDLRMNSLKPEDTAVYYCAARPAVVHTRKESYPYWGQGTQVTVSS
notes: C-term myc-His6 tag

molecular target: T1, recombinant human ErbB2/Fc chimera (human, UniProt P04626 23-652); assay: ELISA, coated ErbB2/Fc
T1 construct: bought from R&D Systems; also called rhErbB2-Fc; rhErb2-Fc; Fc part of the bought chimera not given; not described

binding result	Binder
binds	B1
binds	B2
binds	B3
binds	B4
binds	B5
binds	B6
binds	B7
binds	B8
binds	B9
binds	B10
binds	B11
binds	B12
binds	B13
binds	B14
binds	B15
binds	B16
binds	B17
binds	B18

binding result	Binder
binds	B19
binds	B20
binds	B21
binds	B22
binds	B23
binds	B24
binds	B25
binds	B26
binds	B27
binds	B28
binds	B29
binds	B30
binds	B31
binds	B32
binds	B33
binds	B34
binds	B35
